pKd: −log10 of the molar value.
Experiments:
[1] = target: SARS-CoV-2 RBD, His-tagged, for antibody binding studies (SARS-CoV-2) (UniProt P0DTC2); test: BLI
[2] = target: SARS-CoV RBD, His-tagged, for antibody binding studies (SARS-CoV) (UniProt P59594); test: BLI

Substance	pKd [1]	pKd [2]
COVA1-16 Fab, His-tagged	7.34	6.39
COVA1-16 IgG1 antibody	9.70	6.90

From paper PMC7687367
